Test results as given in patent publication US20210198377A1 (XDCEXPLORER SHANGHAI, published 2021).

T1: cynomolgus monkey TPBG (full length, on cells) (cynomolgus monkey, UniProt Q4R8Y9 35-420)
T1 construct: whole, on cells; On transfected CHO-K1 cells; also called cTPBG; CHO-K1-cTPBG
T1 sequence (looked up): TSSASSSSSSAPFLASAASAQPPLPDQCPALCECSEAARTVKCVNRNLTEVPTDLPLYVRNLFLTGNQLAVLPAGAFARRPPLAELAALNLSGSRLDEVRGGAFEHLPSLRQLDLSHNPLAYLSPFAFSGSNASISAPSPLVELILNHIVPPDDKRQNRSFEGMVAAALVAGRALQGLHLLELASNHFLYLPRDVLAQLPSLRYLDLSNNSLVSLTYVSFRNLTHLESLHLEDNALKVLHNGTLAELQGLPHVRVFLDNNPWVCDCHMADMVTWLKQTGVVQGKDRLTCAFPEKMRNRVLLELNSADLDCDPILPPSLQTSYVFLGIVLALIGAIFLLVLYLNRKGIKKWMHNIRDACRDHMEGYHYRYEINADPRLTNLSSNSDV

T2: human TPBG-hFc (human, UniProt Q13641 32-355)
T2 construct: also called immunogen A; hFc tagged TPBG protein; not shown: The human IgG Fc fragment of the pCpC vector (Invitrogen V044-50) and any linker to it
T2 sequence: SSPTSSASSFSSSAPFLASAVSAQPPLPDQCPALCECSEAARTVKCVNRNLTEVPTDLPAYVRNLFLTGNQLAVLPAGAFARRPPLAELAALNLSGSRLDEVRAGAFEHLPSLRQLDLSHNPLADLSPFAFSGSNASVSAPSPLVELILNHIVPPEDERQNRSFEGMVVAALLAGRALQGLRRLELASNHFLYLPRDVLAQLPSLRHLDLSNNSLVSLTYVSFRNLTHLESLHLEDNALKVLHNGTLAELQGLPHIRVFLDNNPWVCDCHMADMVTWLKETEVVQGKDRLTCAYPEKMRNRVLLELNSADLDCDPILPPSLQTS


Assays:
[1] = biological target: T1, cynomolgus monkey TPBG (full length, on …); experiment: FACS on CHO-K1-cTPBG cells
From the text: The stable cell lines CHO-k1-hTPBG, CHO-k1-cTPBG, CHO-k1-mTPBG (i.e. the CHO-k1-hTPBG 3A2F1, CHO-k1-cTPBG 3F13G4 and CHO-k1-mTPBG 3A3 shown in table 7) and CHO-K1 cells were expanded to a 90% of confluency in T-75 cell culture flasks, the culture medium were removed, and cells were then rinsed twice with HBSS buffer (Hanks Balanced Salt Solution, purchased from Invitrogen) and lysed with enzyme-free cell dissociation buffer (Versene solution purchased from Life technology) and harvested. Harvested cells were rinsed with HBSS buffer twice and counted before diluting with HBSS buffer to 2×10⁶ cells /mL, and 10% goat serum blocking buffer was then added, wherein the percentage is the mass percentage. Cells were incubated on ice for 30 min, and then washed twice with HBSS buffer by centrifugation. The harvested cells were resuspended with FACS buffer (HBSS+1% BSA, wherein the percentage is mass percentage) to a concentration of 2×10⁶ cells /mL. 100 μL per well of the cells was aliquoted to 96-well FACS reaction plates, and 100 μL per well of test sample—the purified TPBG antibody obtaining from Embodiment 2 was added before incubating on ice for 2 h. The plate was washed with the FACS buffer twice by centrifugation, and 100 μL per well of fluorescence (Alexa 488) labeled secondary antibody (purchased from Invitrogen) was then added and incubated on ice for 1 h. The plate was washed with the FACS buffer for three times by centrifugation, follow by resuspending in 100 μL of fixation buffer (4% (v/v) paraformaldehyde). Cells were washed with FACS buffer twice after 10 min, follow by resuspending with 100 μL of FACS buffer. The results were measured and analyzed by FACS (FACS Calibur, purchased from BD). Data analysis was performed by software (CellQuest) to obtain mean fluorescence intensity (MFI) of the cells, follow by calculating EC50 value by software (GraphPad Prism) analysis and data fitting. The analysis results were shown in Table 8 and FIGS. 7-10, and data in FIGS. 7-10 show the mean fluorescence intensity (MFI) of cells.

[2] = biological target: T2, human TPBG-hFc; experiment: ELISA, coated human TPBG-hFc 1.0 ug/mL; antibody 200 nM
Experimental: (§1) The purified immunogen A (as for its method of preparation please refer to step 1 in Example 1) diluting with PBS to a final concentration of 1.0 μg/mL was aliquoted into a 96-well ELISA plate at 100 μL per well, and sealed with a parafilm and incubated at 4° C. overnight. The plate was washed twice with plate washing buffer (PBS containing 0.01% (v/v) Tween 20), and blocked with blocking buffer (PBS containing 0.01% (v/v) Tween 20 and 1% (w/w) BSA) at room temperature for 2 h. The blocking buffer was discarded, and 100 μL per well of the purified antibody obtained from Embodiment 2 was added. After incubating at 37° C. for 2 h, the plate was washed for three times with plate washing buffer (PBS containing 0.01% (v/v) Tween 20). HRP (horseradish peroxidase)-labeled secondary antibody (purchased from Sigma) was added and incubated at 37° C. for 2 h, and the plate was washed for three times using plate washing buffer (PBS containing 0.01% (v/v) Tween 20). 100 μL of TMB substrate was aliquoted into each well, incubated at room temperature for 30 min, and 100 μL of stop buffer (1.0N HCl) per well was subsequently added. A₄₅₀ₙₘ values were read using the ELISA plate reader (SpectraMax 384plus purchased from Molecular Device), and the results were shown in FIG. 6 and table 6. […] In Table 6 the IgG control herein is a mice IgG control, the data in the Table are OD₄₅₀ₘₙ values, and Blank means the OD₄₅₀ₘₙ value when there is only PBS buffer in the plate.

[3] = biological target: T2, human TPBG-hFc; experiment: ELISA, coated human TPBG-hFc 1.0 ug/mL; antibody 0.02 nM
Experimental: as §1

[4] = biological target: T2, human TPBG-hFc; experiment: ELISA, coated human TPBG-hFc 1.0 ug/mL; antibody 0.0002 nM
Experimental: as §1

Row | Binder | EC50 [1] [nM] | OD450nm [2] [OD450nm] | OD450nm [3] [OD450nm] | OD450nm [4] [OD450nm]
1 | 12B12C7C3 (antibody, V domains shown, Mouse hybridoma antibody purified from culture supernatant; also called TPBG antibody; lead antibody) VH: DVQLVESGGGLVQPGGSRKLSCAASGFTFSNFGMHWVRQAPEKGLEWVAYISSGSTSFYYADTVKGRFTISRDNPKNTLFLQMTSLRSEDTAMYYCSRTNSLLRGFFDAWGAGTTVTVSS VL: DIVLTQSPASLAVSLGQRATISCRASQSVSSSSYTYLHWYQQKPGQPPKLLIKSASNLESGVPARFSGTGSGTDFTLNIHPVEEEDTATYYCQHSWEIPLTFGAGTKLELK | 0.59 | 2.82 | 0.29 | 0.1
2 | 37H9C5G2 (antibody, V domains shown, Mouse hybridoma antibody purified from culture supernatant; also called TPBG antibody; lead antibody) VH: QVQLQQSDAELVRPGASVKMSCKVSGYTFTDHTIHWMKQRPEQGLEWIGYIYPRDGSGTYNEKFKGKATLTADKSSSTAYMQLNSLTSEDSAVYFCARDGSSHYWYFDVWGTGTTVTVSS VL: DIQMTQSPASLSASVGETVTITCRASEIIYNYLAWYQQKQGKSPQLLVYNAKTLAEGVPSRFSGSYSGTQFSLNINSLQSEDFGIYYCQHHHDTPLTFGAGTKLDLK | 0.62 | 2.61 | 0.35 | 0.09
3 | 103E2E9C2 (antibody, V domains shown, Mouse hybridoma antibody purified from culture supernatant; also called TPBG antibody; lead antibody) VH: EVQLQQSGPVLVKPGASVKMSCEASGYSFIDYYMSWVKQSRGRSLEWIGVFNPYSGEIIYNQKFKGKATLTVDKSSSTAYMELSSLTSEDSGVYSCARLRISYYAIDYWGQGTSVAVSS VL: ENVLTQSPAIMSASPGEKVTMTCRATSSVSSGHFHWYQQKSGASPKVWIYSTSNLASGVPARFSGSGSGTSFSLTISSVEAEDVATYFCQQYSGYPLTFGGGTKLEIK | 0.83 | 2.6 | 0.48 | 0.1
4 | 36A10D8B12 (antibody, V domains shown, Mouse hybridoma antibody purified from culture supernatant; also called TPBG antibody; lead antibody) VH: DVQLQESGPGMVKPSQSLSLTCTVTGYSITSGYDWHWIRHFPGNKLEWMGYISYSGNTNYNPSLKSRISITHNTSKNHFFLRLNSVTTEDTATYYCARGYGNWDAMDYWGQGTSVTVSS VL: DIVMTQSQKFMSTSVGDRVSVTCKASQIVDTNVAWYQQKPGQSPKALISSASYRYSGVPDRFTGSGSGTDFTLTISNVQSEDLAEYFCQQYNSYPLTFGAGTKLELT | 0.6 | 2.51 | 0.51 | 0.16
5 | 39A11G5F2 (antibody, V domains shown, Mouse hybridoma antibody purified from culture supernatant; also called TPBG antibody; lead antibody) VH: QVQLQQSGAELMKPGASMRLSCKATGYTFTGYWLEWIKRRPGHGLEWIGEILPGRGSTNYNEKFKGKATFTAETSSNTAYMQLTSLTTEDSAIYYCARGGRDFDNWGQGTTLTVSS VL: DIQMTQSTSSLSASLGDRVTISCSASQGINNHLNWYQQKPDGTVKLLIYYTSSLHSGVPSRFSGSGSGTDYSLTISNLEPEDIAIYYCQQFSKLPYTFGGGTKVEMK | 1.35 | 2.55 | 0.3 | 0.09
6 | 52C9E9F6 (antibody, V domains shown, Mouse hybridoma antibody purified from culture supernatant; also called TPBG antibody; lead antibody) VH: QVQLQQSGAELMKPGASVKLSCKATGYTFTGYWIEWIKQRPGHGLEWIGEILPGRGSTDYNEKFKGKATFTADTSSNTAYMQLSSLTTEDSAIYYCTRGRLDFTYWGQGTLVTVSA VL: DIQMTQTTSSLSASLGDRVTISCSASQGIRNYLNWYQQKPDGTVKLLIYYTSSLHSGVPSRFSGSGSGTDYSLTISNLEPEDIATYYCQQYSKVPWTFGGGTKLEIK | 1.54 | 2.65 | 0.27 | 0.09
7 | 106D5G3D10 (antibody, V domains shown, Mouse hybridoma antibody purified from culture supernatant; also called TPBG antibody; lead antibody) VH: EVQLVESGGGLVKPGGSLKLSCAASGFTFSDYGMHWVRQAPEKGLEWVGYISSGTYVVYYADTVKGRFTISRDNAKNTLFLQMTSLRSEDTAIYYCSTYGSNPFDYWGQGTTLTVSS VL: QLVLTQSPAIMSASPGEKVTITCSATSSVSSMHWFQQKPVTSPKLWIYSTSNLASGVPTRFSGSGSGTSYSLTISRMEAEDAATYYCQQRSGYPPIFTFGSGTKLEIK | 1.26 | 2.88 | 0.56 | 0.11
8 | 99E12C7H1 (antibody, V domains shown, Mouse hybridoma antibody purified from culture supernatant; also called TPBG antibody; lead antibody) VH: QIQLVQSGPELKKPGETVKISCKPSGYTFTAYGLSWVKQAPGQGFQWMGWINTYSGVPTYTDDFKGRFAFSLETSAGTASLQITNLKNEDTATYFCARSSIPPFEYWGPGTTLTVSS VL: SFVMTQSPKFLLVSVGDRVTITCKASQSVSNDVAWYQQKPGQPPRVLIYFASNRYTGVPDRFTGSGYGTDFTFTISTVQAEDLALYFCQQDYSSPWTFGGGTKLEIK | 2.29 | 2.93 | 0.78 | 0.11
9 | 5G4H10G5 (antibody, V domains shown, Mouse hybridoma antibody purified from culture supernatant; also called TPBG antibody; lead antibody) VH: EVQLVESGGDLVQPGGSLKLFCAASGFTFSTYGLSWVRQTPDKRLELVATITNNDGSAYYPDSVKGRFTISRDKAKNTLFLQMTSLKSEDTAMYYCARETGFGSSYLFDYWGQGTLVTVSA VL: NIVMTQTPKFLLVSAGDRVTITCKASQSVSNDVAWYQQKPGQSPKLLIYFATNRYTGVPNRFTGSGYGTEFTFTISSVQAEDLAVYFCQQDYSSPTFGGGTKLEIK | 0.84 | 2.72 | 0.34 | 0.08
10 | 28D4E6A9 (antibody, V domains shown, Mouse hybridoma antibody purified from culture supernatant; also called TPBG antibody; lead antibody) VH: DVQLVESGGGLVRPGGSLKLSCAASGFTFSNYVMSWARQSPEKRLEWVAEISTGGSHTYYSDTVTGRFTISRDNAKKALYLEMSSLRSEDTAIYYCIMFYYGSSYSMDYWGQGTSVTVSS VL: DIQMTQSTSSLSASLGDRITISCRASQDIRNYLNWYQQKPDGTVKLLIYHTSRLHSGVPSRFSGSGSGTDYSLTISNLEQEDIATYFCQQGDTLPLTFGAGTRLELK | 0.25 | 2.6 | 0.46 | 0.1
